In IntAct's records for PubMed 17003044:

B1: BAR/IMD domain-containing adapter protein 2 (Homo sapiens), Q9UQB8 (parent)
chain: MSLSRSEEMHRLTENVYKTIMEQFNPSLRNFIAMGKNYEKALAGVTYAAKGYFDALVKMGELASESQGSKELGDVLFQMAEVHRQIQNQLEEMLKSFHNELLTQLEQKVELDSRYLSAALKKYQTEQRSKGDALDKCQAELKKLRKKSQGSKNPQKYSDKELQYIDAISNKQGELENYVSDGYKTALTEERRRFCFLVEKQCAVAKNSAAYHSKGKELLAQKLPLWQQACADPSKIPERAVQLMQQVASNGATLPSALSASKSNLVISDPIPGAKPLPVPPELAPFVGRMSAQESTPIMNGVTGPDGEDYSPWADRKAAQPKSLSPPQSQSKLSDSYSNTLPVRKSVTPKNSYATTENKTLPRSSSMAAGLERNGRMRVKAIFSHAAGDNSTLLSFKEGDLITLLVPEARDGWHYGESEKTKMRGWFPFSYTRVLDSDGSDRLHMSLQQGKSSSTGNLLDKDDLAIPPPDYGAASRAFPAQTASGFKQRPYSVAVPAFSQGLDDYGARSMSRNPFAHVQLKPTVTNDRCDLSAQGPEGREHGDGSARTLAGR

Variants of: B1
Conditions: with rac1_human RAC1, P63000
MSLSRSEEMHRLTENVYKTIMEQFNPSLRNFIAMGKNYEKALAGVTYAAKGYFDALVKMGELASESQGSKELGDVLFQMAEVHRQIQNQLEEMLKSFHNELLTQLEQKVELDSRYLSAALKKYQTEQRSKGDALDKCQAELAALAAASQGSKNPQKYSDKELQYIDAISNKQGELENYVSDGYKTALTEERRRFCFLVEKQCAVAKNSAAYHSKGKELLAQKLPLWQQACADPSKIPERAVQLMQQVASNGATLPSALSASKSNLVISDPIPGAKPLPVPPELAPFVGRMSAQESTPIMNGVTGPDGEDYSPWADRKAAQPKSLSPPQSQSKLSDSYSNTLPVRKSVTPKNSYATTENKTLPRSSSMAAGLERNGRMRVKAIFSHAAGDNSTLLSFKEGDLITLLVPEARDGWHYGESEKTKMRGWFPFSYTRVLDSDGSDRLHMSLQQGKSSSTGNLLDKDDLAIPPPDYGAASRAFPAQTASGFKQRPYSVAVPAFSQGLDDYGARSMSRNPFAHVQLKPTVTNDRCDLSAQGPEGREHGDGSARTLAGR [K142A;K143A;R145A;K146A;K147A] was tested, and the “effect of a mutation on the interaction” value was “decreasing interaction strength”. For MSLSRSEEMHRLTENVYKTIMEQFNPSLRNFIAMGKNYEKALAGVTYAAKGYFDALVKMGELASESQGSKELGDVLFQMAEVHRQIQNQLEEMLKSFHNELLTQLEQKVELDSRYLSAALKKYQTEQRSKGDALDKCQAELKELRKESQGSKNPQKYSDKELQYIDAISNKQGELENYVSDGYKTALTEERRRFCFLVEKQCAVAKNSAAYHSKGKELLAQKLPLWQQACADPSKIPERAVQLMQQVASNGATLPSALSASKSNLVISDPIPGAKPLPVPPELAPFVGRMSAQESTPIMNGVTGPDGEDYSPWADRKAAQPKSLSPPQSQSKLSDSYSNTLPVRKSVTPKNSYATTENKTLPRSSSMAAGLERNGRMRVKAIFSHAAGDNSTLLSFKEGDLITLLVPEARDGWHYGESEKTKMRGWFPFSYTRVLDSDGSDRLHMSLQQGKSSSTGNLLDKDDLAIPPPDYGAASRAFPAQTASGFKQRPYSVAVPAFSQGLDDYGARSMSRNPFAHVQLKPTVTNDRCDLSAQGPEGREHGDGSARTLAGR [K143E;K147E], the “effect of a mutation on the interaction” value was “decreasing interaction strength”. For MSLSRSEEMHRLTENVYKTIMEQFNPSLRNFIAMGKNYEKALAGVTYAAKGYFDALVKMGELASESQGSKELGDVLFQMAEVHRQIQNQLEEMLKSFHNELLTQLEQKVELDSRYLSAALKKYQTEQRSKGDALDKCQAELKELRKKSQGSKNPQKYSDKELQYIDAISNKQGELENYVSDGYKTALTEERRRFCFLVEKQCAVAKNSAAYHSKGKELLAQKLPLWQQACADPSKIPERAVQLMQQVASNGATLPSALSASKSNLVISDPIPGAKPLPVPPELAPFVGRMSAQESTPIMNGVTGPDGEDYSPWADRKAAQPKSLSPPQSQSKLSDSYSNTLPVRKSVTPKNSYATTENKTLPRSSSMAAGLERNGRMRVKAIFSHAAGDNSTLLSFKEGDLITLLVPEARDGWHYGESEKTKMRGWFPFSYTRVLDSDGSDRLHMSLQQGKSSSTGNLLDKDDLAIPPPDYGAASRAFPAQTASGFKQRPYSVAVPAFSQGLDDYGARSMSRNPFAHVQLKPTVTNDRCDLSAQGPEGREHGDGSARTLAGR [K143E], the “effect of a mutation on the interaction” value was “decreasing interaction strength”. In the case of MSLSRSEEMHELTENVYKTIMEEFNPSLRNFIAMGKNYEKALAGVTYAAKGYFDALVKMGELASESQGSKELGDVLFQMAEVHRQIQNQLEEMLKSFHNELLTQLEQKVELDSRYLSAALKKYQTEQRSKGDALDKCQAELKKLRKKSQGSKNPQKYSDKELQYIDAISNKQGELENYVSDGYKTALTEERRRFCFLVEKQCAVAKNSAAYHSKGKELLAQKLPLWQQACADPSKIPERAVQLMQQVASNGATLPSALSASKSNLVISDPIPGAKPLPVPPELAPFVGRMSAQESTPIMNGVTGPDGEDYSPWADRKAAQPKSLSPPQSQSKLSDSYSNTLPVRKSVTPKNSYATTENKTLPRSSSMAAGLERNGRMRVKAIFSHAAGDNSTLLSFKEGDLITLLVPEARDGWHYGESEKTKMRGWFPFSYTRVLDSDGSDRLHMSLQQGKSSSTGNLLDKDDLAIPPPDYGAASRAFPAQTASGFKQRPYSVAVPAFSQGLDDYGARSMSRNPFAHVQLKPTVTNDRCDLSAQGPEGREHGDGSARTLAGR [R11E;Q23E], the “effect of a mutation on the interaction” value is reported as “decreasing interaction strength”. MSLSRSEEMHRLTENVYKTIMEEFNPSLRNFIAMGKNYEKALAGVTYAAKGYFDALVKMGELASESQGSKELGDVLFQMAEVHRQIQNQLEEMLKSFHNELLTQLEQKVELDSRYLSAALKKYQTEQRSKGDALDKCQAELKKLRKKSQGSKNPQKYSDKELQYIDAISNKQGELENYVSDGYKTALTEERRRFCFLVEKQCAVAKNSAAYHSKGKELLAQKLPLWQQACADPSKIPERAVQLMQQVASNGATLPSALSASKSNLVISDPIPGAKPLPVPPELAPFVGRMSAQESTPIMNGVTGPDGEDYSPWADRKAAQPKSLSPPQSQSKLSDSYSNTLPVRKSVTPKNSYATTENKTLPRSSSMAAGLERNGRMRVKAIFSHAAGDNSTLLSFKEGDLITLLVPEARDGWHYGESEKTKMRGWFPFSYTRVLDSDGSDRLHMSLQQGKSSSTGNLLDKDDLAIPPPDYGAASRAFPAQTASGFKQRPYSVAVPAFSQGLDDYGARSMSRNPFAHVQLKPTVTNDRCDLSAQGPEGREHGDGSARTLAGR [Q23E] was tested, and the “effect of a mutation on the interaction” value was “decreasing interaction strength”.
